Measured values reported in US20130330294A1, “Serum Amyloid A (SAA) Overrides Regulatory T Cells (TREG) Anergy” (The Board of Trustees of the Leland Stanford Junior …, priority 2010, published 2013).

Assays:
[1] = test system: SOCS3 in Treg; assay: SOCS3 expression in forskolin-treated Treg by intracellular staining; assay type: cell-based, human; conditions: after 24 hour stimulation
Experimental: To evaluate effects of plasma on suppression assays and immune cell cultures, frozen plasma samples were thawed at 25° C. and debris were removed with sterile 40 μm filters (BD Biosciences). All plasma samples were tested in duplicates or triplicates. To control for variations in suppressive and proliferative potentials of Treg and Teff, respectively, both HC and SJIA plasma samples were used in parallel suppression assays with the same set of purified cells for each round of experiments. In addition, fold change in 3H-thymidine cpm in assays with plasma compared to those in complete media alone, was computed to analyze the effects of plasma in suppression assays or stimulation assays. In CFSE assays, percentage of proliferating cells (shown by dye dilution) was used to analyze the effects of plasma on cell proliferation. IL-1Ra, neutralizing antibody against IL-6 and TNF-α (R&D System), and recombinant IL-1, IL-6 (Peprotech) were used to evaluate the roles of these cytokines in suppression assays. Recombinant SAA (Peprotech) was used at different concentrations in suppression assays in the presence of polymixin (5 μg/ml). […] To pharmacologically modulate SOCS3, isolated Treg were cultured with forskolin (Calbiochem) at different concentrations and analyzed for SOCS3 expression at different time points. […]

[2] = test system: Treg and Teff; assay: CFSE-based Treg suppression assay with APC; assay type: cell-based, human
Experimental: Carboxyfluorescein diacetate succinimidyl ester (CFSE) dilution assay was used for measuring T cell proliferation in suppression assays. Briefly, Treg were labeled with CFSE using Cell Tracer CFSE Cell Proliferation kit (Molecular Probes) at a final concentration of 10 μM, according to manufacturer's instructions. Assays with labeled cells were performed as described for 3H-thymidine-based suppression assays. After 7 days of culture, cells were harvested and dye dilution was analyzed by flow cytometry. Stimulation assays were set up similarly with allogeneic irradiated APC and only one type of CFSE-labeled T cells (either Treg or Teff). For APC fixation, these cells were first re-suspended in PBS+10% FBS+1% paraformaldehyde for […] at 37° C. Fixed cells were pelleted by centrifugation, washed and then cultured in complete media.
To evaluate effects of plasma on suppression assays and immune cell cultures, frozen plasma samples were thawed at 25° C. and debris were removed with sterile 40 μm filters (BD Biosciences). All plasma samples were tested in duplicates or triplicates. To control for variations in suppressive and proliferative potentials of Treg and Teff, respectively, both HC and SJIA plasma samples were used in parallel suppression assays with the same set of purified cells for each round of experiments. In addition, fold change in 3H-thymidine cpm in assays with plasma compared to those in complete media alone, was computed to analyze the effects of plasma in suppression assays or stimulation assays. In CFSE assays, percentage of proliferating cells (shown by dye dilution) was used to analyze the effects of plasma on cell proliferation. IL-1Ra, neutralizing antibody against IL-6 and TNF-α (R&D System), and recombinant IL-1, IL-6 (Peprotech) were used to evaluate the roles of these cytokines in suppression assays. […] To pharmacologically modulate SOCS3, isolated Treg were cultured with forskolin (Calbiochem) at different concentrations and analyzed for SOCS3 expression at different time points.

[3] = test system: pERK1/2, pAKT, pSTAT3 in Treg and Teff; assay: Phosphorylation of ERK1/2, AKT and STAT3 in Treg and Teff in suppression assays by FACS; assay type: cell-based, human; conditions: assays with SJIA plasma, day 4; IL-1 RA 1 μM, anti-IL-6 1 μg/ml
Experimental: (§1) Detection of surface markers and intracellular molecules was performed. Antibodies used in these experiments included anti-human RAGE, SOCS3 (Abcam), CD14-FITC, DR-FITC, Foxp3-FITC, Lin (mixture of CD3, CD14, CD16, CD19, CD56)-FITC, CD14-PE, CD25-PE, CD40-PE, CD83-PE, CD127-PE, HVEM-PE, PDL2-PE, IL-1-PE, IL-6-PE, CD3-PerCP, CD4-PerCP, CD19-PerCP, CD25-PerCP, DR-PerCP, Lin-PerCP, CD3-APC, CD4-APC, CD14-APC, CD36-APC, CD86-APC, TLR2-APC, TLR4-APC, PDL1-APC, CCR7-APC, IL-6-APC, Lin-APC (Biolegend), Ki-67 FITC, pSTAT3 Alexa-647, pAKT Alexa-647, pERK1/2 Alexa-647 (BD Biosciences), and FPRL-1-APC(R&D System). Antibodies to mouse proteins used in these experiments included anti-CD25-PE, CD4-PerCP, CD11b-PerCP, CD115-APC, and Foxp3-APC (Biolegend). For in vitro experiments, to assay for expression of different surface and intracellular molecules in a specific cell subset (Treg, Teff or APC) in mixed cell cultures, the relevant subset was labeled with CFSE prior to suppression assays. Cells were pelleted at various time points and underwent standard staining protocols of the manufacturers. For in vivo experiments, cells were harvested from the peritoneal cavity and underwent flow cytometric analysis.

[4] = test system: Treg and Teff; assay: Suppression assay without APC (anti-CD3 and anti-CD28 as T cell stimuli); assay type: cell-based, human; conditions: recombinant SAA 25 μg/ml
Experimental: Standard 3H-thymidine-based suppression assays were performed to analyze Treg function. Autologous Treg and Teff were cultured at 3,750 cells per 50 μl per well in complete media (RPMI+10% FBS+1% L-glutamine) with allogeneic irradiated CD3-depleted peripheral blood mononuclear cells (antigen presenting cells or APC), at 37,500 cells per 50 μl per well. Anti-CD3 antibodies (clone UCHT1, BD Biosciences) were pre-coated on U-bottom 96 well plates at 5 μg/ml for 4 hours at 37° C. before suppression assays. Additional media was added so the final volume in each well was 200 μl. On day 6, cells were pulsed with 1 μCi 3H-thymidine (25 μl) per well and harvested on day 7 with a Tomtec cell harvester. 3H-thymidine incorporation was determined using a 1450 microbeta Wallac Trilux liquid scintillation counter. […] Stimulation assays were set up similarly with allogeneic irradiated APC and only one type of T cell (either Treg or Teff). All assays were performed in triplicates. For suppression assays without APC, anti-CD3 antibodies at 5 μg/ml final concentration (clone UCHT1, BD Biosciences) were plate-bound in U-bottom 96-well plates for 4 hours at 37° C. Soluble anti-CD28 (5 μg/ml, BD Biosciences) was added, followed by Teff (40,000 cells per 50 μl per well) and Treg (40,000 cells per 50 μl per well). […]

[5] = test system: peritoneal Treg and Teff; assay: In vivo effects of SAA on Treg frequency and proliferation (intraperitoneal injection); design: species or system C57B6 mice; conditions: 16 hours
Experimental: as §1, with “C57B6 mice (male, 8 to 10 weeks old) were purchased from Jackson Laboratory. Mice were injected intraperitoneally with recombinant human SAA (Peprotech, 30 μg in 100 μl PBS), purified human serum albumin (Sigma Aldrich, 30 μg in 100 μl PBS), or endotoxin (Sigma Aldrich, 0.25 ng in 100 μl PBS). Animals were sacrificed 16 hours later; peritoneal cells were harvested and stained for surface and intracellular markers to detect Treg frequency and proliferation. In vivo depletion of monocytes was performed with clodronate liposomes (Encapsula). In these experiments, 400 μl of clodronate or empty liposomes were injected intraperitoneally 24 hours before SAA injection. Detection” for “Detection”, “[…],” for “CD127-PE, HVEM-PE, PDL2-PE, IL-1-PE, IL-6-PE,”

[6] = test system: APC, monocytes and B cells; assay: Secreted and intracellular cytokines in suppression assays, APC, monocyte and B cell cultures; assay type: cell-based, human; conditions: 25 μg/ml, polymixin 5 μg/ml, 24 hours
Experimental: Both suppression assays and APC cultures were set up for supernatant collection. For APC cultures, 50 μl of APC stock solution (750,000 cells per ml) were incubated in a final volume of 200 μl per well in complete media. Plasma samples were used at 35 μl per well. At different time points, supernatants were collected after centrifugation to pellet cells; supernatants representing samples from the same experimental conditions were pooled from 6 wells of 96-well plates and stored at −80° C. until analysis. To detect cytokines in the supernatants, cytometric bead arrays (BD Biosciences) and ELISA (R&D System) were used according to manufacturers' protocols. Similar assays were performed for plasma samples from HC and SJIA subjects.
Detection of surface markers and intracellular molecules was performed. Antibodies used in these experiments included anti-human RAGE, SOCS3 (Abcam), CD14-FITC, DR-FITC, Foxp3-FITC, Lin (mixture of CD3, CD14, CD16, CD19, CD56)-FITC, CD14-PE, CD25-PE, CD40-PE, CD83-PE, CD127-PE, HVEM-PE, PDL2-PE, IL-1-PE, IL-6-PE, CD3-PerCP, CD4-PerCP, CD19-PerCP, CD25-PerCP, DR-PerCP, Lin-PerCP, CD3-APC, CD4-APC, CD14-APC, CD36-APC, CD86-APC, TLR2-APC, TLR4-APC, PDL1-APC, CCR7-APC, IL-6-APC, Lin-APC (Biolegend), Ki-67 FITC, pSTAT3 Alexa-647, pAKT Alexa-647, pERK1/2 Alexa-647 (BD Biosciences), and FPRL-1-APC(R&D System). […]

[7] = in the presence of polymixin (5 μg/ml)

Q: Which “optimal dosing for SOCS3 induction in Treg” value [1] does the source give for `C=C[C@@]1(C)CC(=O)[C@]2(O)[C@@]3(C)[C@@H](O)CCC(C)(C)[C@@H]3[C@H](O)[C@H](OC(C)=O)[C@@]2(C)O1` [forskolin] here?
A: The value was 100 µM.

Q: Which “inhibition of SJIA plasma-induced Treg proliferation” value ([2]; suppression assays with SJIA plasma, various concentrations, IL-1 Ra 1 μM, antibodies 1 μg/ml) does the source give for “IL-1Ra: IL-1 receptor antagonist (R&D System)” here?
A: The value was “significant inhibition”.

Q: What about the “phosphorylated ERK1/2 in Treg with blocking reagent” value [3] of the same molecule?
A: Its value is “abrogated the increased expression”.

Q: What about the “phosphorylation of AKT in Treg with blocking reagent” value [3] of the same molecule?
A: The value was “inhibited phosphorylation of AKT”.

B1: recombinant human SAA (protein, UniProt P0DJI8 19-122, looked up)
Serum amyloid A-1 protein: RSFFSFLGEAFDGARDMWRAYSDMREANYIGSDKYFHARGNYDAAKRGPGGAWAAEVITDARENIQRFFGHGAEDSLADQAANEWGRSGKDPNHFRPAGLPEKY
Q: How did the “Treg proliferation in suppression assays” value [2, 7] turn out when B1 was run?
A: The value was “selectively enhance proliferation of Treg”.

Q: What about the Treg suppressive activity [2, 7] of the same molecule?
A: The Treg suppressive activity was “without reducing their suppressive activity”.

Q: And the “Treg proliferation in the absence of APC” value [4]?
A: Its value is “failed to induce Treg proliferation”.

Q: And the “Treg abundance in the peritoneal cavity” value ([5]; 30 μg i.p. in 100 μl PBS, vs human serum albumin or endotoxin)?
A: Its value is “significant increase in Treg abundance”.

Q: What about the “Teff proliferation in vivo” value ([5]; 30 μg i.p.) of the same molecule?
A: Its value is “did not enhance Teff proliferation”.

Q: And the “percentage of peritoneal Treg expressing Ki-67” value ([5]; 30 μg i.p., vs controls)?
A: The value was “significantly higher percentage”.

Q: And the “IL-1 production by monocytes compared with B cells” value [6]?
A: The value was “significantly higher levels”.

Q: And the “IL-6 production by monocytes compared with B cells” value [6]?
A: Its value is “significantly higher levels”.
